From patent US20200165324A1

Tests used:
JR-CSF N276A [1] = molecular target: JR-CSF N276A
BG505 T372A [2] = molecular target: BG505 T372A
BG505 K121A [3] = molecular target: BG505 K121A
JR-CSF N362A [4] = molecular target: JR-CSF N362A
JR-CSF N283A [5] = molecular target: JR-CSF N283A
JR-CSF T198A [6] = molecular target: JR-CSF T198A
JR-CSF S365A [7] = molecular target: JR-CSF S365A
BG505 G471A [8] = molecular target: BG505 G471A
JR-CSF R476A [9] = molecular target: JR-CSF R476A
BG505 R476A [10] = molecular target: BG505 R476A
JR-CSF S199A [11] = molecular target: JR-CSF S199A
[12] = molecular target: JR-CSF Env on JR-CSF pseudovirus
BG505 L369A [13] = molecular target: BG505 L369A
BG505 N332T [14] = molecular target: BG505 N332T
BG505 K282A [15] = molecular target: BG505 K282A
BG505 N363A [16] = molecular target: BG505 N363A
BG505 N279A [17] = molecular target: BG505 N279A
BG505 T373A [18] = molecular target: BG505 T373A
JR-CSF N276A [19] = assay: ELISA, gp120 captured from lysed virions
JR-CSF G366A = assay: ELISA, gp120 captured from lysed virions
BG505 V371A = assay: ELISA, gp120 captured from lysed virions
JR-CSF T373A = assay: ELISA, gp120 captured from lysed virions
[20] = molecular target: JR-CSF gp120 captured from lysed virions (HIV isolate JR-CSF) (UniProt P20871); assay: ELISA, gp120 captured from lysed virions
BG505 K121A [21] = assay: ELISA, gp120 captured from lysed virions
JR-CSF N362A [22] = assay: ELISA, gp120 captured from lysed virions
BG505 N197A = assay: ELISA, gp120 captured from lysed virions
JR-CSF N283A [23] = assay: ELISA, gp120 captured from lysed virions
BG505 G367A = assay: ELISA, gp120 captured from lysed virions
JR-CSF T198A [24] = assay: ELISA, gp120 captured from lysed virions
JR-CSF S365A [25] = assay: ELISA, gp120 captured from lysed virions
JR-CSF D368A = assay: ELISA, gp120 captured from lysed virions
BG505 N283A = assay: ELISA, gp120 captured from lysed virions
JR-CSF G471A = assay: ELISA, gp120 captured from lysed virions
BG505 G471A [26] = assay: ELISA, gp120 captured from lysed virions
JR-CSF R476A [27] = assay: ELISA, gp120 captured from lysed virions
JR-CSF N262A = assay: ELISA, gp120 captured from lysed virions
BG505 R476A [28] = assay: ELISA, gp120 captured from lysed virions
JR-CSF S199A [29] = assay: ELISA, gp120 captured from lysed virions
BG505 G472A = assay: ELISA, gp120 captured from lysed virions
BG505 L179A = assay: ELISA, gp120 captured from lysed virions
BG505 K282A [30] = assay: ELISA, gp120 captured from lysed virions
BG505 N363A [31] = assay: ELISA, gp120 captured from lysed virions
JR-CSF G473A = assay: ELISA, gp120 captured from lysed virions
BG505 G366A = assay: ELISA, gp120 captured from lysed virions
JR-CSF G472A = assay: ELISA, gp120 captured from lysed virions
JR-CSF E370A = assay: ELISA, gp120 captured from lysed virions
JR-CSF N279A = assay: ELISA, gp120 captured from lysed virions
JR-CSF K207A = assay: ELISA, gp120 captured from lysed virions
JR-CSF T372A = assay: ELISA, gp120 captured from lysed virions
BG505 T372A [32] = assay: ELISA, gp120 captured from lysed virions
JR-CSF V371A = assay: ELISA, gp120 captured from lysed virions
BG505 S364A = assay: ELISA, gp120 captured from lysed virions
BG505 L369A [33] = assay: ELISA, gp120 captured from lysed virions
BG505 N332T [34] = assay: ELISA, gp120 captured from lysed virions
[35] = molecular target: BG505 gp120 captured from lysed virions (HIV isolate BG505); assay: ELISA, gp120 captured from lysed virions
BG505 E370A = assay: ELISA, gp120 captured from lysed virions
BG505 N279A [36] = assay: ELISA, gp120 captured from lysed virions
BG505 S365A = assay: ELISA, gp120 captured from lysed virions
BG505 T373A [37] = assay: ELISA, gp120 captured from lysed virions

PGT121 (antibody) gave an IC50, pseudovirus neutralization (JR-CSF N276A [1]) of 0.033 µg/mL, an IC50, pseudovirus neutralization (BG505 T372A [2]) of 0.019 µg/mL and an IC50, pseudovirus neutralization (BG505 K121A [3]) of 0.026 µg/mL. For the same substance, the IC50, pseudovirus neutralization (JR-CSF N362A [4]) was 0.026 µg/mL, the IC50, pseudovirus neutralization (JR-CSF N283A [5]) was 0.017 µg/mL and the IC50, pseudovirus neutralization (JR-CSF T198A [6]) was 0.046 µg/mL. It also gave an IC50, pseudovirus neutralization (JR-CSF S365A [7]) of 0.026 µg/mL, an IC50, pseudovirus neutralization (BG505 G471A [8]) of 0.014 µg/mL and an IC50, pseudovirus neutralization (JR-CSF R476A [9]) of 0.014 µg/mL. The IC50, pseudovirus neutralization (BG505 R476A [10]) was 0.02 µg/mL, the IC50, pseudovirus neutralization (JR-CSF S199A [11]) was 0.03 µg/mL and the IC50, pseudovirus neutralization [12] was 0.028 µg/mL. It also gave an IC50, pseudovirus neutralization (BG505 L369A [13]) of 0.021 µg/mL, an IC50, pseudovirus neutralization (BG505 N332T [14]) of 0.019 µg/mL and an IC50, pseudovirus neutralization (BG505 D474A) of 0.023 µg/mL. The IC50, pseudovirus neutralization (BG505 K282A [15]) was 0.009 µg/mL, the IC50, pseudovirus neutralization (BG505 N363A [16]) was 0.026 µg/mL and the IC50, pseudovirus neutralization (BG505 N279A [17]) was 0.02 µg/mL. The IC50, pseudovirus neutralization (BG505 T373A [18]) was 0.017 µg/mL, the EC50 (JR-CSF N276A [19]) was 1.25 µg/mL and the EC50 (JR-CSF G366A) was 0.489 µg/mL. For the same substance, the EC50 (BG505 V371A) was 1.4 µg/mL, the EC50 (JR-CSF T373A) was 0.643 µg/mL and the EC50 [20] was 1.33 µg/mL. For the same substance, the EC50 (BG505 K121A [21]) was 1 µg/mL, the EC50 (JR-CSF N362A [22]) was 0.747 µg/mL and the EC50 (BG505 N197A) was 1.3 µg/mL. For the same substance, the EC50 (JR-CSF N283A [23]) was 0.615 µg/mL, the EC50 (BG505 G367A) was 4 µg/mL and the EC50 (JR-CSF T198A [24]) was 0.604 µg/mL. For the same substance, the EC50 (JR-CSF S365A [25]) was 0.935 µg/mL, the EC50 (JR-CSF D368A) was 0.942 µg/mL and the EC50 (BG505 N283A) was 3.4 µg/mL. The EC50 (JR-CSF G471A) was 0.619 µg/mL, the EC50 (BG505 G471A [26]) was 2.5 µg/mL and the EC50 (JR-CSF R476A [27]) was 0.984 µg/mL. For the same substance, the EC50 (JR-CSF N262A) was 0.947 µg/mL, the EC50 (BG505 R476A [28]) was 1 µg/mL and the EC50 (JR-CSF S199A [29]) was 1.91 µg/mL. It also gave an EC50 (BG505 G472A) of 1.4 µg/mL, an EC50 (BG505 L179A) of 0.5 µg/mL and an EC50 (BG505 K282A [30]) of 1.3 µg/mL. The EC50 (BG505 N363A [31]) was 2.3 µg/mL, the EC50 (JR-CSF G473A) was 0.46 µg/mL and the EC50 (BG505 G366A) was 0.9 µg/mL. The EC50 (JR-CSF G472A) was 0.664 µg/mL, the EC50 (JR-CSF E370A) was 0.933 µg/mL and the EC50 (JR-CSF N279A) was 0.535 µg/mL. The EC50 (JR-CSF K207A) was 0.437 µg/mL and the EC50 (JR-CSF T372A) was 0.698 µg/mL.
VRC01 (antibody) gave an EC50 (BG505 V371A) of 1.3 µg/mL, an EC50 (BG505 T372A [32]) of 0.4 µg/mL and an EC50 (JR-CSF T373A) of 0.456 µg/mL. It also gave an EC50 (BG505 K121A [21]) of 0.7 µg/mL, an EC50 (JR-CSF N362A [22]) of 0.327 µg/mL and an EC50 (BG505 N197A) of 0.4 µg/mL. For the same substance, the EC50 (JR-CSF N283A [23]) was 0.348 µg/mL, the EC50 (BG505 G367A) was 9.4 µg/mL and the EC50 (BG505 R476A [28]) was 0.5 µg/mL. The EC50 (JR-CSF V371A) was 1.62 µg/mL, the EC50 (BG505 G472A) was 0.9 µg/mL and the EC50 (BG505 S364A) was 0.4 µg/mL. For the same substance, the EC50 (BG505 L369A [33]) was 1.6 µg/mL, the EC50 (BG505 N332T [34]) was 0.2 µg/mL and the EC50 (BG505 L179A) was 0.6 µg/mL. For the same substance, the EC50 (BG505 K282A [30]) was 0.6 µg/mL, the EC50 [35] was 0.2 µg/mL and the EC50 (BG505 N363A [31]) was 0.9 µg/mL. The EC50 (BG505 E370A) was 1.1 µg/mL, the EC50 (BG505 G366A) was 0.7 µg/mL and the EC50 (BG505 N279A [36]) was 25.4 µg/mL. The EC50 (BG505 S365A) was 1.4 µg/mL and the EC50 (BG505 T373A [37]) was 0.5 µg/mL.
